In article PMC10948613 (Frontiers in Plant Science, 2024):
Each block holds one binder with its values, some of them ahead of it.

Biological target: T1, ProtA-tagged GLABRA3 (GL3) (Arabidopsis thaliana, UniProt Q9FN69 1-637)
T1 construct: GLABRA3 (GL3), basic helix-loop-helix (bHLH)-like transcription factor, Arabidopsis thaliana; Backbone pTREXdest30; The results write 'GL3-ProtA', but the methods say that the tag is fused to the N-terminus; also called GL3-ProtA; ProtA-tagged GL3; source: HEK293TM cells, transiently expressed, in lysate; not shown: Staphylococcus aureus protein A, N-terminal, kept
T1 sequence (looked up): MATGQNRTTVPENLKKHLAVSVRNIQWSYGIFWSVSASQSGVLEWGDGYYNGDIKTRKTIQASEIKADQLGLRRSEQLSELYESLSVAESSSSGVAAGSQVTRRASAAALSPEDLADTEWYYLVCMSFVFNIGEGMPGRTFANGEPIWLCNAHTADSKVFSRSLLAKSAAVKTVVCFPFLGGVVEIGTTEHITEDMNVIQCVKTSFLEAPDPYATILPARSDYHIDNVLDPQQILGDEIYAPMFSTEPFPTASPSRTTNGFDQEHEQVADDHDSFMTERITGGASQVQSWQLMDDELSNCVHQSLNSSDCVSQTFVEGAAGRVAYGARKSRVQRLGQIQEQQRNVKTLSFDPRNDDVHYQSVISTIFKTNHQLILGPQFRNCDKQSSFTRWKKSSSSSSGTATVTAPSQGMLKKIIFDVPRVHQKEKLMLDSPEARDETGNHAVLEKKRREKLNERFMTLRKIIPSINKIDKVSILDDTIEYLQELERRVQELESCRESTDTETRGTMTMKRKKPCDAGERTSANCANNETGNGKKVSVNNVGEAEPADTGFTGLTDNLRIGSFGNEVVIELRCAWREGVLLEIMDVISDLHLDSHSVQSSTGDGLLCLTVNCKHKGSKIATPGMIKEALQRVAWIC
Assay: pull-down; LUMIER pull-down: raw HEK293TM extracts of ProtA-tagged GL3 and a Renilla-tagged protein mixed, dilution series of the ratio, Renilla luminescence on the beads; ratios from HA Western blots; single-site reversible binding model; KD dimensionless and relative to the total GL3 concentration
Conditions: partners not purified

- relative KD (KD divided by total GL3): 0.5 dimensionless, relative to the total GL3 concentration
B1: Renilla-tagged GLABRA1 (GL1) (natural protein, Arabidopsis thaliana, UniProt P27900 1-228, looked up)
chain: MRIRRRDEKENQEYKKGLWTVEEDNILMDYVLNHGTGQWNRIVRKTGLKRCGKSCRLRWMNYLSPNVNKGNFTEQEEDLIIRLHKLLGNRWSLIAKRVPGRTDNQVKNYWNTHLSKKLVGDYSSAVKTTGEDDDSPPSLFITAATPSSCHHQQENIYENIAKSFNGVVSASYEDKPKQELAQKDVLMATTNDPSHYYGNNALWVHDDDFELSSLVMMNFASGDVEYCL
notes: GLABRA1 (GL1), R2R3MYB, Arabidopsis thaliana; Backbone pTREXdest30; also called GL1-Renilla; GL1Renilla; source: HEK293TM cells, transiently expressed, in lysate; not shown: Renilla reniformis luciferase (Rluc), N-terminal, kept

- relative KD (KD divided by total GL3): 2.3 dimensionless, relative to the total GL3 concentration
B2: Renilla-tagged CAPRICE (CPC) (natural protein, Arabidopsis thaliana, UniProt O22059 1-94, looked up)
chain: MFRSDKAEKMDKRRRRQSKAKASCSEEVSSIEWEAVKMSEEEEDLISRMYKLVGDRWELIAGRIPGRTPEEIERYWLMKHGVVFANRRRDFFRK
notes: CAPRICE (CPC), R3MYB, Arabidopsis thaliana; Backbone pTREXdest30; also called CPC-Renilla; source: HEK293TM cells, transiently expressed, in lysate; not shown: Renilla reniformis luciferase (Rluc), N-terminal, kept

- relative KD (KD divided by total GL3): 2.7 dimensionless, relative to the total GL3 concentration
B3: Renilla-tagged TRIPTYCHON (TRY) (natural protein, Arabidopsis thaliana, UniProt Q8GV05 1-106, looked up)
chain: MDNTDRRRRRKQHKIALHDSEEVSSIEWEFINMTEQEEDLIFRMYRLVGDRWDLIAGRVPGRQPEEIERYWIMRNSEGFADKRRQLHSSSHKHTKPHRPRFSIYPS
notes: TRIPTYCHON (TRY), R3MYB, Arabidopsis thaliana; Backbone pTREXdest30; also called TRY-Renilla; source: HEK293TM cells, transiently expressed, in lysate; not shown: Renilla reniformis luciferase (Rluc), N-terminal, kept

- relative KD (KD divided by total GL3): 1 dimensionless, relative to the total GL3 concentration
B4: Renilla-tagged TRANSPARENT TESTA GLABRA1 (TTG1) (natural protein, Arabidopsis thaliana, UniProt Q9XGN1 1-341, looked up)
chain: MDNSAPDSLSRSETAVTYDSPYPLYAMAFSSLRSSSGHRIAVGSFLEDYNNRIDILSFDSDSMTVKPLPNLSFEHPYPPTKLMFSPPSLRRPSSGDLLASSGDFLRLWEINEDSSTVEPISVLNNSKTSEFCAPLTSFDWNDVEPKRLGTCSIDTTCTIWDIEKSVVETQLIAHDKEVHDIAWGEARVFASVSADGSVRIFDLRDKEHSTIIYESPQPDTPLLRLAWNKQDLRYMATILMDSNKVVILDIRSPTMPVAELERHQASVNAIAWAPQSCKHICSGGDDTQALIWELPTVAGPNGIDPMSVYSAGSEINQLQWSSSQPDWIGIAFANKMQLLRV
notes: TRANSPARENT TESTA GLABRA1 (TTG1), WD40 protein, Arabidopsis thaliana; Backbone pTREXdest30; also called TTG1-Renilla; Renilla-tagged TTG1; source: HEK293TM cells, transiently expressed, in lysate; not shown: Renilla reniformis luciferase (Rluc), N-terminal, kept
